According to patent US20240116985A1 (published 2024):
Starred links: 1 amine or outer side, 2 acyl side, 3 side chain; linkers in the order of their positions; H or OH if unused. Positions of bridges follow the written chain, without caps; N, C: chain ends. Non-standard residues stand in square brackets, D forms with d. Primed or numbered codes have the meaning given here. *: point of attachment. B5(10) = 2-amino-2-(pent-4-en-1-yl)hept-6-enoic acid, bis(4-pentenyl)glycine, stitching residue bearing both staples, C=CCCCC(CCCC=C)(N[*:1])C(=O)[*:2]; PyrS2″ = (S)-3-amino-1-((pent-4-en-1-yloxy)carbonyl)pyrrolidine-3-carboxylic acid (stapling residue), C=CCCCOC(=O)N1CC[C@@](N[*:1])(C(=O)[*:2])C1; B5(4) = 2,2-bis(4-pentenyl)glycine = 2-amino-2-(pent-4-en-1-yl)hept-6-enoic acid (stitching residue), C=CCCCC(CCCC=C)(N[*:1])C(=O)[*:2]; B5(5) = 2,2-bis(4-pentenyl)glycine, 2-amino-2-(pent-4-en-1-yl)hept-6-enoic acid (stitching residue), C=CCCCC(CCCC=C)(N[*:1])C(=O)[*:2]; B5(33) = 2-amino-2-(pent-4-en-1-yl)hept-6-enoic acid (bis-pentenylglycine, two olefin side chains), C=CCCCC(CCCC=C)(N[*:1])C(=O)[*:2]; B5(6) = 2-amino-2-(pent-4-en-1-yl)hept-6-enoic acid (bis(4-pentenyl)glycine), stitching residue, C=CCCCC(CCCC=C)(N[*:1])C(=O)[*:2]; PyrS2 = (S)-3-amino-1-((pent-4-en-1-yloxy)carbonyl)pyrrolidine-3-carboxylic acid, C=CCCCOC(=O)N1CC[C@@](N[*:1])(C(=O)[*:2])C1; Qui = (S)-2-amino-3-(quinolin-2-yl)propanoic acid, O=C([C@H](Cc1ccc2ccccc2n1)N[*:1])[*:2]; Phe(2-Cl) = N[C@@H](Cc1ccccc1Cl)C(=O)O; Bta = N[C@@H](Cc1csc2ccccc12)C(=O)O; Lys(iPr) = CC(C)NCCCC[C@H](N)C(=O)O; αAllylPro = C=CC[C@@]1(C(=O)O)CCCN1; tBuAla = CC(C)(C)C[C@H](N)C(=O)O; S8 = C=CCCCCCC[C@](C)(N)C(=O)O; Propanoyl(3-OMe) = COCCC(=O)*; Ms = CS(=O)(=O)*

B1: I-143: Ac-PL3-Asp-Ala-B5-Asp-Glu-Ala-Ala-Phe-Val-S8-Phe-Qui-Gln-NH2 (peptide)
peptide: Ac-[αAllylPro]DA[B5(4)]DEAAFV[S8]F[Qui]Q-NH2
modifications: staple 1-4, 4-11
notes: Stapled peptide
B2: I-506 (peptide)
peptide: Ac-[αAllylPro]DL[B5(6)]DEAAFQ[S8]F[Bta]H-NH2
modifications: staple 1-4, 4-11
notes: Stapled peptide composition; also called Ac-PL3-Asp-Leu-B5-Asp-Glu-Ala-Ala-Phe-Gln-S8-Phe-BztA-His-NH2
B3: I-1258 (peptide)
peptide: Ms-[αAllylPro]D[tBuAla][B5(33)]DDAAFN[PyrS2][Phe(2-Cl)][Bta][dT]-NH2
modifications: staple 1-4, 4-11 (inferred); not fully specified; printed as MeSO2-PL3-Asp-Npg-B5-Asp-Asp-Ala-Ala-Phe-Asn-PyrS2-2C1F-BztA-dThr-NH2
B4: I-1259 (peptide)
peptide: {Propanoyl(3-OMe)}-[αAllylPro]D[tBuAla][B5(33)]DDAAFN[PyrS2][Phe(2-Cl)][Bta][dT]-NH2
modifications: staple 1-4, 4-11 (inferred); not fully specified; printed as MeOPr-PL3-Asp-Npg-B5-Asp-Asp-Ala-Ala-Phe-Asn-PyrS2-2C1F-BztA-dThr-NH2
B5: I-1263 (peptide)
peptide: Ac-[αAllylPro]D[tBuAla][B5(33)]DTAAFT[PyrS2]F[Bta]S-NH2
modifications: staple 1-4, 4-11 (inferred); not fully specified; printed as Ac-PL3-Asp-Npg-B5-Asp-Thr-Ala-Ala-Phe-Thr-PyrS2-Phe-BztA-Ser-NH2
B6: I-1273 (peptide)
peptide: Ac-[αAllylPro]D[tBuAla][B5(5)]DD[Lys(iPr)]AFT[PyrS2″][Phe(2-Cl)][Bta]T-NH2
modifications: staple 1-4; staple 4-11 (inferred); not fully specified; printed as Ac-PL3-Asp-Npg-B5-Asp-Asp-iPrLys-Ala-Phe-Thr-PyrS2-2C1F-BztA-Thr-NH2
B7: I-1274 (peptide)
peptide: Ac-[αAllylPro]D[tBuAla][B5(5)]DD[Lys(iPr)]AFT[PyrS2″][Phe(2-Cl)][Bta]L-NH2
modifications: staple 1-4; staple 4-11 (inferred); not fully specified; printed as Ac-PL3-Asp-Npg-B5-Asp-Asp-iPrLys-Ala-Phe-Thr-PyrS2-2C1F-BztA-Leu-NH2
B8: I-1275 (peptide)
peptide: Ac-[αAllylPro]D[tBuAla][B5(5)]DD[Lys(iPr)]AFL[PyrS2″][Phe(2-Cl)][Bta]Q-NH2
modifications: staple 1-4; staple 4-11 (inferred); not fully specified; printed as Ac-PL3-Asp-Npg-B5-Asp-Asp-iPrLys-Ala-Phe-Leu-PyrS2-2C1F-BztA-Gln-NH2
B9: I-1276 (peptide)
peptide: Ac-[αAllylPro]D[tBuAla][B5(5)]DD[Lys(iPr)]AFL[PyrS2″][Phe(2-Cl)][Bta]T-NH2
modifications: staple 1-4; staple 4-11 (inferred); not fully specified; printed as Ac-PL3-Asp-Npg-B5-Asp-Asp-iPrLys-Ala-Phe-Leu-PyrS2-2C1F-BztA-Thr-NH2
B10: I-1277 (peptide)
peptide: Ac-[αAllylPro]D[tBuAla][B5(5)]DD[Lys(iPr)]AFL[PyrS2][Phe(2-Cl)][Bta]L-NH2
modifications: staple 1-4, 4-11; not fully specified; printed as Ac-PL3-Asp-Npg-B5-Asp-Asp-iPrLys-Ala-Phe-Leu-PyrS2-2C1F-BztA-Leu-NH2
B11: I-1278 (peptide)
peptide: Ac-[αAllylPro]D[tBuAla][B5(5)]DDAAF[Lys(iPr)][PyrS2][Phe(2-Cl)][Bta]Q-NH2
modifications: staple 1-4, 4-11; not fully specified; printed as Ac-PL3-Asp-Npg-B5-Asp-Asp-Ala-Ala-Phe-iPrLys-PyrS2-2C1F-BztA-Gln-NH2
B12: I-1279 (peptide)
peptide: Ac-[αAllylPro]D[tBuAla][B5(10)]DDAAF[Lys(iPr)][PyrS2][Phe(2-Cl)][Bta]T-NH2
modifications: staple 1-4, 4-11
B13: I-1280 (peptide)
peptide: Ac-[αAllylPro]D[tBuAla][B5(10)]DDAAF[Lys(iPr)][PyrS2][Phe(2-Cl)][Bta]L-NH2
modifications: staple 1-4, 4-11

Target: T1, beta-catenin (full-length, Uniprot ID P35222) (Homo sapiens (Human), UniProt P35222 2-781)
T1 construct: The FP protocol says 'full-length beta-Catenin (Uniprot ID P35222)'; also called bCat; B-Catenin
T1 sequence: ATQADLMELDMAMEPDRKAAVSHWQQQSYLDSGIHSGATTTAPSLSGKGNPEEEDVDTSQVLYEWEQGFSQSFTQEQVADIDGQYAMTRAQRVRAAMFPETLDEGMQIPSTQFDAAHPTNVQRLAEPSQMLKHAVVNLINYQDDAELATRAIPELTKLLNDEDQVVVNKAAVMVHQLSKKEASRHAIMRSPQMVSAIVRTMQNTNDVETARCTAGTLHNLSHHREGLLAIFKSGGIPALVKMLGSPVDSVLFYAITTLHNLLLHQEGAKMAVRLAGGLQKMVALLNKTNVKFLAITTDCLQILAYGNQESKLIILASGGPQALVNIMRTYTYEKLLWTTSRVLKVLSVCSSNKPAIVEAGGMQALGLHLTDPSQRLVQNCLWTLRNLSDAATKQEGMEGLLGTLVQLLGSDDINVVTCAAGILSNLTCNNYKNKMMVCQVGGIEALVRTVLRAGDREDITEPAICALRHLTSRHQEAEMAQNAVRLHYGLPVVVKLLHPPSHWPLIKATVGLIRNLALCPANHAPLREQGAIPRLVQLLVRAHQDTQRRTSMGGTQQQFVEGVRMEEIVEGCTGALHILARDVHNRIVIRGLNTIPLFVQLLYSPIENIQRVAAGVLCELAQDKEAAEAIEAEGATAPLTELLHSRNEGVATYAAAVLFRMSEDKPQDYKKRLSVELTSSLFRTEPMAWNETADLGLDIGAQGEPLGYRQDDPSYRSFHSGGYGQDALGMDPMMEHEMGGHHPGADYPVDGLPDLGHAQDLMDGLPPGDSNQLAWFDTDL
Assay: fluorescence polarization competition vs 5FAM-TCF4(10-53) on full-length beta-catenin
Experimental: (§1) The plate was incubated protected from light for 60 minutes at 20° C. prior to read. Reads were performed on a CLARIOstar plate reader (BMG Labtech) in duplicate, and data were fitted to a 1:1 binding model with hill slope using an in-house script. All provided concentrations are final concentrations.

B1 gave an IC50 of 2.27 µM.

Target: T2, full-length beta-Catenin (Uniprot ID P35222) (Homo sapiens (Human), UniProt P35222 1-781)
T2 construct: also called bCat; B-Catenin
T2 sequence: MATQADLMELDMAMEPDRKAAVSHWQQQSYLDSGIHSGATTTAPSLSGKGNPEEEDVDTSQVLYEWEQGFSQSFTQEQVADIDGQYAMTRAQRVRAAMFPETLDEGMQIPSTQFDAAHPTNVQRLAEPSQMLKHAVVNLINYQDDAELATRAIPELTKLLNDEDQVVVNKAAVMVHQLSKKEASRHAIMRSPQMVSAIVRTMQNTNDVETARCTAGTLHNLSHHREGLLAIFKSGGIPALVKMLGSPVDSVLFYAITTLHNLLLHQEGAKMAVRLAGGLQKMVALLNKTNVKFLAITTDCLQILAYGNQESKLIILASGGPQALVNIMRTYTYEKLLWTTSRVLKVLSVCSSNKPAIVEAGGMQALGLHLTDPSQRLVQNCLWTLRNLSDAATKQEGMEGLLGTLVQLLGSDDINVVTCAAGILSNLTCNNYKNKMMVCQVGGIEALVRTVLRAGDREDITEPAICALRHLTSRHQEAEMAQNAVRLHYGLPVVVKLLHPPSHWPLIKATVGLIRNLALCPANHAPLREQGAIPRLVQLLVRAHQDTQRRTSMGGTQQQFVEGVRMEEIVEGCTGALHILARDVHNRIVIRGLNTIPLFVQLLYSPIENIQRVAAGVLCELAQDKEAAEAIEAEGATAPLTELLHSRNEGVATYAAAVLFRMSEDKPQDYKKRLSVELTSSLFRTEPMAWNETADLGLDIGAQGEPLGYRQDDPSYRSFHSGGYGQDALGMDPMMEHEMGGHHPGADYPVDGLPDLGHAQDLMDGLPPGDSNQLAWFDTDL
Assay: fluorescence polarization competition; 10 nM full-length beta-catenin + 10 nM 5FAM-TCF4(10-53) probe
Experimental: as §1

Work on B2 yielded an EC50 of 0.025 µM.

Target: T3, B-cat-Halo (UniProt P35222 1-781)
T3 sequence (looked up): T2 sequence
Assay: cell-based or functional assay

First: B3
Second: B4
The “NanoBRET Abs IC50” value of the first is higher: > 20 µM for the first, 18.1 µM for the second.

Going from B5 to B6, the “NanoBRET Abs IC50” value rises from 20 µM to > 20 µM.

B7 and B8 cannot be ordered by “NanoBRET Abs IC50” value: > 20 µM for the first, 27.8 µM for the second.

B9 and B10 cannot be ordered by “NanoBRET Abs IC50” value: > 20 µM for the first, > 20 µM for the second.

B11 and B12 are within 1.5-fold of each other in “NanoBRET Abs IC50” value: 18 µM for the first, 22.9 µM for the second.

B13 was tested, and the “NanoBRET Abs IC50” value was 24.7 µM.
